Drawing on publication PMC6187371, this text covers stoichiometry N for one substance.

The target in one experiment is duligotuzumab memAb. The experiment in a line: single molecule localization microscopy.
A further experiment concerns the target duligotuzumab meFab. The experiment can be described thus: single molecule localization microscopy.

As for meditope-Alexa Fluor 647 (peptide), the results for the stoichiometry N with duligotuzumab memAb and with duligotuzumab meFab were 2 and 1, respectively.
